Reference: PMC12615798
pEC50: −log10 of the molar value.

Molecular target: cystatin C^EX (human) (UniProt P01034)
Assay: ELISA; two-fold serial dilutions of cystatin C^EX coated on the plate overnight at 4 °C, 10 μg/mL ECD-Fc added for 2 h at room temperature, anti-human-IgG-Fc-HRP

Sequence of UniProt P01034 (P01034 27-146): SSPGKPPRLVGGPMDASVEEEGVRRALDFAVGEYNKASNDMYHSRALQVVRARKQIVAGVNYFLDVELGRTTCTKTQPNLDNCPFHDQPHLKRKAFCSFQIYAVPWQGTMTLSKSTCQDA

pEC50 | Substance
5.93 | LILRB5 ECD-Fc (commercial) (from UniProt O75023 24-458) (Fc fusion)
7.64 | LILRB2 ECD-Fc (commercial) (from UniProt Q8N423 22-460) (Fc fusion)
